Measured values published in patent publication US20150139990A1 (DAINIPPON SUMITOMO PHARMA, published 2015).

T1: human CD81 on CD81-expressing cells (Jurkat E6.1, human PBMC, Ramos) (human, UniProt P60033 1-236)
T1 sequence: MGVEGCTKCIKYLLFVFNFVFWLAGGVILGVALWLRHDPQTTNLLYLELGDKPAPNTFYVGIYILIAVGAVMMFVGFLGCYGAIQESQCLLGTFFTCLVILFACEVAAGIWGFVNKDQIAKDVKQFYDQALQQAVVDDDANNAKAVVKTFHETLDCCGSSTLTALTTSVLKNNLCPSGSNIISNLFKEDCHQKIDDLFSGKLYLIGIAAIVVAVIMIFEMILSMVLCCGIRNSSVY

T2: human CD81 mutant V169A (human, UniProt P60033 1-236, limits assumed)
T2 construct: as m30; not shown: C-terminal V5 and 6xHis tags
T2 sequence: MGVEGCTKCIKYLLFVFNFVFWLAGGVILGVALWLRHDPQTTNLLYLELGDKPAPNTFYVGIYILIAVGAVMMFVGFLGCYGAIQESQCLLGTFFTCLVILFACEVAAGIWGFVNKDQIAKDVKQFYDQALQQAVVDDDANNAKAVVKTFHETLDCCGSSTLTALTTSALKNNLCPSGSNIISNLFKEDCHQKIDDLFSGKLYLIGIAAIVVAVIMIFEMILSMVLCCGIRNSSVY

T3: human CD81 mutant A164V (human, UniProt P60033 1-236, limits assumed)
T3 construct: as m30; not shown: C-terminal V5 and 6xHis tags
T3 sequence: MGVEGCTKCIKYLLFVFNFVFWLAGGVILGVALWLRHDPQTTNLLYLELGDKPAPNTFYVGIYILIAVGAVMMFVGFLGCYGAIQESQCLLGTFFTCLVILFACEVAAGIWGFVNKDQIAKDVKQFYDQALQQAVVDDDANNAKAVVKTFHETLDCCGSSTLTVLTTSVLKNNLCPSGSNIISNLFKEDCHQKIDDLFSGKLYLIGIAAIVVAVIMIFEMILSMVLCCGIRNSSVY

T4: human CD81 mutant V169L (human, UniProt P60033 1-236, limits assumed)
T4 construct: as m30; not shown: C-terminal V5 and 6xHis tags
T4 sequence: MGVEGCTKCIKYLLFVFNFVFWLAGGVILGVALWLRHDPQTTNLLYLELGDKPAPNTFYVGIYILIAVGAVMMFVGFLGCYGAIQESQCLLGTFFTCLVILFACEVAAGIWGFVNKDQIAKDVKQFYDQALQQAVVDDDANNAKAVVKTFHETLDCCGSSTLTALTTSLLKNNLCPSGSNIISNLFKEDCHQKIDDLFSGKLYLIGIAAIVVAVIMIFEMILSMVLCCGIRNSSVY

T5: human CD81 mutant L165A (human, UniProt P60033 1-236, limits assumed)
T5 construct: as m30; not shown: C-terminal V5 and 6xHis tags
T5 sequence: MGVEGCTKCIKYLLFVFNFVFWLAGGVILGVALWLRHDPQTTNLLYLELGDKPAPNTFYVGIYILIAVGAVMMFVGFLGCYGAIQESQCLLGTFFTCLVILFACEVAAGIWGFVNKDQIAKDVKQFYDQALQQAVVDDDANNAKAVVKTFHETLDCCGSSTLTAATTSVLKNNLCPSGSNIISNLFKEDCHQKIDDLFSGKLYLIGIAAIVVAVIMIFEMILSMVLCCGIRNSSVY

T6: human CD81 mutant A164T (human, UniProt P60033 1-236, limits assumed)
T6 construct: as m30; not shown: C-terminal V5 and 6xHis tags
T6 sequence: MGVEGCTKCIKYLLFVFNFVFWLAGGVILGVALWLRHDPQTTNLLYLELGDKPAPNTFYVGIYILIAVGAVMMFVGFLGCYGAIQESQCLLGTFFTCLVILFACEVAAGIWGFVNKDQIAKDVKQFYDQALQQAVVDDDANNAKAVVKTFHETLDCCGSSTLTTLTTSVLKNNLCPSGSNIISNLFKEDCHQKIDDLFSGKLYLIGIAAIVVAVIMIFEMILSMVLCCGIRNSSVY

T7: human CD81 mutant V135A (human, UniProt P60033 1-236, limits assumed)
T7 construct: as m30; not shown: C-terminal V5 and 6xHis tags
T7 sequence: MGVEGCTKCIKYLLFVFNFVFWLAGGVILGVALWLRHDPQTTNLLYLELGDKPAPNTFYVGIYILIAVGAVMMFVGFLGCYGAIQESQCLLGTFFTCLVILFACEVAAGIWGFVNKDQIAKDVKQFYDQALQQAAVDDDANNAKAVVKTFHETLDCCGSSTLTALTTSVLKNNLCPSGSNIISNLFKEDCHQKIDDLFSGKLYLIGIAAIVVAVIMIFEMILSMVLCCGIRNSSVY

T8: human CD81 mutant D137A (human, UniProt P60033 1-236, limits assumed)
T8 construct: as m30; not shown: C-terminal V5 and 6xHis tags
T8 sequence: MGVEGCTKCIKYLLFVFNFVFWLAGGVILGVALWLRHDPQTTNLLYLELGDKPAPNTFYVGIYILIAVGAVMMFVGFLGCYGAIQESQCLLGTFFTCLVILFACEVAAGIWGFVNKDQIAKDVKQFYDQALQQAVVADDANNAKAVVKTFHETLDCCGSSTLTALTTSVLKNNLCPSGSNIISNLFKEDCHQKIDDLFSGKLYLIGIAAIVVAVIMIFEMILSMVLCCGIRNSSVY


What was measured:
[1] = target: T1, human CD81 on CD81-expressing cells …; assay: cell-based or functional assay
human CD81 mutant V169A = target: T2, human CD81 mutant V169A; assay: ELISA
human CD81 mutant A164V = target: T3, human CD81 mutant A164V; assay: ELISA
human CD81 mutant V169L = target: T4, human CD81 mutant V169L; assay: ELISA
human CD81 mutant L165A = target: T5, human CD81 mutant L165A; assay: ELISA
human CD81 mutant A164T = target: T6, human CD81 mutant A164T; assay: ELISA
human CD81 mutant V135A = target: T7, human CD81 mutant V135A; assay: ELISA
human CD81 mutant D137A = target: T8, human CD81 mutant D137A; assay: ELISA

Binder	Jurkat chemotaxis (% of control IgG4) at 0.001 µg/mL [1]	Jurkat chemotaxis (% of control IgG4) at 0.01 µg/mL [1]	Jurkat chemotaxis (% of control IgG4) at 0.1 µg/mL [1]	Jurkat chemotaxis (% of control IgG4) at 1 µg/mL [1]	Jurkat chemotaxis (% of control IgG4) at 10 µg/mL [1]	relative binding affinity (human CD81 mutant V169A)	relative binding affinity (human CD81 mutant A164V)	relative binding affinity (human CD81 mutant V169L)	relative binding affinity (human CD81 mutant L165A)	relative binding affinity (human CD81 mutant A164T)	relative binding affinity (human CD81 mutant V135A)	relative binding affinity (human CD81 mutant D137A)
001-B06 (antibody, human IgG4 S228P, lambda, V domains shown, IgG4 S228P) VH: EVQLLESGGGLVQPGGSLRLSCAASGFTFSSNYMSWVRQAPGKGLEWVSYISSSSTYTDYADSVKGRFTISRDNSKNTLYLQMNSLRAEDTAVYYCARYSYGRDTFDYWGQGTLVTVSS VL: QSVLTQPFSASGTPGQRVTISCTGSTSNIGAGYDTHWYQQLPGTAPKLLIYGNSNRPSGVPDRFSGSKSGTSASLAISGLRPEDEADYYCQSYDTSLSVWVFGGGTKLTVLG	102%	91%	35%	3%	3%	< 20%						
002-B07 (antibody, human IgG4 S228P, lambda, V domains shown, IgG4 S228P) VH: EVQLLESGGGLVQPGGSLRLSCAASGFTFSSNYMSWVRQAPGKGLEWVSYISSSSTYTDYADSVKGRFTISRDNSKNTLYLQMNSLRAEDTAVYYCARYSYGRDNFDYWGQGTLVTVSS VL: QSVLTQPSSASGTPGQRVTISCTGSTSNIGAGYDTHWYQQLPGTAPKLLIYGNSNRPSGVPDRFSGSKSGTSASLAISGLRSEDEADYYCQSYDTNLSGWVFGGGTKLTVLG	92%	87%	8%	4%	-9%	< 20%	< 20%	< 20%	< 20%	< 20%	< 20%	
002-C09 (antibody, human IgG4 S228P, lambda, V domains shown, IgG4 S228P) VH: EVQLLESGGGLVQPGGSLRLSCAASGFTFSSNYMSWVRQAPGKGLEWVSYISSSSTYTDYADSVKGRFTISRDNSKNTLYLQMNSLRAEDTAVYYCARYSYGRDNFDYWGQGTLVTVSS VL: QSVLTQPASASGTPGQRVTISCTGSTSNIGAGYGTHWYQRLPGTAPKLLIYGNSNRPSGVPDRFSGSKSGTSASLAISGLRSEDEADYYCQSYDTNLSGWVFGGGTKLTVLG	101%	82%	15%	-1%	11%	< 20%	< 20%	< 20%	< 20%	< 20%	< 20%	
002-D03 (antibody, human IgG4 S228P, lambda, V domains shown, IgG4 S228P) VH: EVQLLESGGGLVQPGGSLRLSCAASGFTFRSNYMSWVRQAPGKGLEWVSYISSSSTYTDYADSVKGRFTISRDNSKNTLYLQMNSLRAEDTAVYYCARYSYGRDNFDYWGQGTLVTVSS VL: QSVLTQPPSASGTPGQRVTISCTGSTSNIGAGYDTHWYQQLPGTAPKLLIYGNSNRPSGVPDRFSGSKSGTSASLAISGLRSEDEADYYCQSYDTNLSVWVFGGGTKLTVLG	105%	91%	25%	14%	16%	< 20%	< 20%	< 20%	< 20%	< 20%	< 20%	< 20%
002-D08 (antibody, human IgG4 S228P, lambda, V domains shown, IgG4 S228P) VH: EVQLLESGGGLVQPGGSLRLSCATSGFPFSSNYMSWVRQAPGKGLEWVSYISSSSTYSDYADSVKGRFSISRDNSKNTLYLQMNSLRAEDTAVYYCARYSYGRDNFDYWGQGTLVTVSS VL: QSVLTQPSSASGTPGQRVTISCTGSTSNIGAGYATHWYQQLPGTAPKLLIYGNSNRPSGVPDRFSGSKSGTSASLAISGLRSEDEADYYCQSYDTNLSVWVFGGGTKLTVLG	101%	105%	67%	19%	14%	< 20%	< 20%		< 20%	< 20%	< 20%	
002-D10 (antibody, human IgG4 S228P, lambda, V domains shown, IgG4 S228P) VH: EVQLLESGGGLVQPGGSLRLSCAASGFTFSSNYMSWVRQAPGKGPEWVSYISSSSTYTDYADSVKGRFTISRDNSKNTLYLQMNSLRAEDTAVYYCARYSYGRDNFDYWGQGTLVTVSS VL: QSVLTQPSSASGTPGQRVTISCTGSTSNIGAGYDTHWYQQLPGTAPKLLIYGNSNRPSGVPDRFSGSKSGTSASLAVSGLRSEDEAEYYCQSYDTNLSGWVFGGGTKLTVLG	97%	87%	34%	6%	10%	< 20%	< 20%	< 20%	< 20%	< 20%	< 20%	
002-H02 (antibody, human IgG4 S228P, lambda, V domains shown, IgG4 S228P) VH: EVQLLESGGGLVQPGGSLRLSCAASGFTFSSNYMSWVRQAPGKGLEWVSYISSSSTYTDYADSVKGRFTISRDNSKNTLYLQMNSLRAEDTAVYYCARYSYGRDSFDYWGQGTLVTVSS VL: QSVLTQPSSASGTPGQRVTISCTGSTSNIGAGYGTHWYQQLPGTAPKLLIYGNSNRPSGVPDRFSGSKSGTSASLAISGLRSEDEADYYCQSYDTNLSVWVFGGGTKLTVLG	87%	85%	-1%	-10%	-2%	< 20%	< 20%	< 20%	< 20%	< 20%	< 20%	
002-H03 (antibody, human IgG4 S228P, lambda, V domains shown, IgG4 S228P) VH: EVQLLESGGGLVQPGGSLRLSCAASGFTFSSNYMSWVRQAPGKGLEWVSYISSSSTYTDYADSVKGRFTISRDNSKNTLYLQMNSLRAEDTAVYYCARYSYGRDNFDYWGQGTLVTVSS VL: QSVLTQPSSASGTPGQRVTISCTGSTSNIGAGYDTHWYQQLPGTAPKPLIYGNSNRPSGVPDRFSGSKSGTSASLAISGLRSEDEADYYCQSYDTNLSAWVFGGGTKLTVLG	106%	89%	13%	0%	-3%	< 20%	< 20%		< 20%	< 20%	< 20%	
